The results in this text go back to patent US20240343803A1 (SHANDONG SIMCERE BIOPHARMACEUTICAL, published 2024).

Substitutions are numbered along the chain they refer to.

Sequences and labels used below:
T1: full-length human TIGIT on CHO-K1 cells (CHO-K1 human TIGIT) (human, UniProt Q495A1 22-244)
T1 construct: NCBI XP_024309156.1; entry includes the signal peptide; also called high expression strain 1D2; medium expression strain 2D10
T1 sequence: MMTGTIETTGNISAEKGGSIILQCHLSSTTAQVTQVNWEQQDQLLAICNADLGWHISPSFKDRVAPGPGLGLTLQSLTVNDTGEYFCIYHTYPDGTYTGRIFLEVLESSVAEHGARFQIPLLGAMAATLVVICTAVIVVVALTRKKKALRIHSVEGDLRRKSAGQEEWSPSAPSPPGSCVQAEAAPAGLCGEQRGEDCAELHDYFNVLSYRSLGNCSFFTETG

T2: human TIGIT ECD-mFc (fusion protein of extracellular domain of human TIGIT and mouse IgG2a Fc fragment) (human)
T2 chain: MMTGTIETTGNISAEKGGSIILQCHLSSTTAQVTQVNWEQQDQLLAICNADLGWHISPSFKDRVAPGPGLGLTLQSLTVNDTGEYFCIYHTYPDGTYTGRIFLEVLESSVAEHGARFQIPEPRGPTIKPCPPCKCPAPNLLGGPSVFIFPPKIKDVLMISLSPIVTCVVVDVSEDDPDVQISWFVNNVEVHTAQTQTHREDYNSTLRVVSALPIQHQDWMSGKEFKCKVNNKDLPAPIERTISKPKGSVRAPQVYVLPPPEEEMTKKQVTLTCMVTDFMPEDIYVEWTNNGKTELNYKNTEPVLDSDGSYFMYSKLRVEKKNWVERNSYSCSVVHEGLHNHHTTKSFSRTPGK

T3: human TIGIT ECD-his (fusion protein of extracellular domain of human TIGIT and His-tag) (human)
T3 construct: entry includes the signal peptide, limits not readable here
T3 chain: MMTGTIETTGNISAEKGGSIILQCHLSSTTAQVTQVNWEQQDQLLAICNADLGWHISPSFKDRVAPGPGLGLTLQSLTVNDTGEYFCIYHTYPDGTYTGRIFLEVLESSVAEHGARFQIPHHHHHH

B1: TIGIT-CHI-002 (antibody, V domains shown)
VH: EVQLQESGPGLAKPSQTLSLACSVTGYSITSDSWNWIRKFPGNKLEYMGYISYSGNTYYNPSLKSRISITRDTSKNQFYLQLNSVTTEDTATYYCARLDFSNYGGAVDYWGQGTSVTVSS
VL: DIVMTQSHTFMSTSVGDRVSITCKASQNVRTAVAWYQQKPGQSPKLMIYSASYRYTGVPDRFTGSGSGTDFTFTISSVQAEDLAVYYCQQYYTTPWTFGGGAKLEIQ
notes: human-mouse chimeric antibody
B2: TIGIT-CHI-006 (antibody, V domains shown)
VH: B1 VH with L18P, A21T, I29M, S33Y, N56R, L98G, F100Y, V107M, D108Y, Y109D
VL: DIVMTQSHKFMSTSVGDRVSITCRASQGVSTTIAWYQQKPGQSPKLLIYSASYRYTGVPDRFTGSGSGTDFTFTISGVQAEDLAVYYCQQYYSSPFTFGGGTKLEIK
notes: human-mouse chimeric antibody
B3: TIGIT-CHI-005 (antibody, V domains shown)
VH: QVQLQQSGAELVRPGTSVKVSCKASGYAFTNYLIEWVKQRPGQGLEWIGVINPGSGGTNYKEKFKGKATLTADKSSSTAYMQLSSLTSEDSAVYFCARGEYFFFDYWGQGTTLTVSS
VL: DIVMTQSHKFMSTSVGDRVSITCKASQHVSNGVAWYQHKPGQSPKLLIYSASYRYTGVPDRFTGTGSGTDFTFTISSVQAEDLAVYYCQQHYNTPHTFGGGTKLEIK
notes: human-mouse chimeric antibody
B4: TIGIT-CHI-070 (antibody, V domains shown)
VH: QVQLQQPGTELVKPGASVKLSCRASGYTFTNYYMHWVKQRPGRGLEWIGRIDPDSGGSKYNEKFKSKATLTVDKLSSTAYMQLSSLTSEDSAVYYCAREGHYGFYSDYWGQGTTLTVSS
VL: DIQMTQSPASLSASVGETVTITCRVSENIYSYLAWYQQKQGKSPQLLVYNAKTLAEGVPSRFSGSGSGTQFSLKINSLQPEDFGNYYCQHHYGNPLTFGAGTKLDLK
notes: human-mouse chimeric antibody

T5 sequence (chain, as listed by the source limits assumed): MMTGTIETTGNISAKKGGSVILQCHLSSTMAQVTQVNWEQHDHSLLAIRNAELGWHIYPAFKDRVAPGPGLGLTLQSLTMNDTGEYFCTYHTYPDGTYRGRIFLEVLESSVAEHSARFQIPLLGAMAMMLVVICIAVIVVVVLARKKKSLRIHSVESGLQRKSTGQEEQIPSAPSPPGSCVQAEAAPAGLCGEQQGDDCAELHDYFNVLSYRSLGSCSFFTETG

For one assay, the target named is T1, full-length human TIGIT on CHO-K1 cells …. Description: FACS, low expression strain. As to the method:
(§1) The collected cells were washed once with PBS (Hyclone, CAT #SH30256), resuspended to 2×10⁵/50 μL with 1% BSA-PBS. The antibodies were diluted to 80 nM with 1% BSA-PBS (diluted by 3-fold serial dilution for 12 concentration points). The 50 μL cells were then mixed with 50 μL diluted antibodies, and then incubated at 4° C. for 60 minutes. […] After washing twice with PBS, the cell samples were resuspended with 1% BSA-PBS, 100 μL/well and then analyzed by flow cytometry (BD, Canto II). […] [0298] (c) The effect of anti-TIGIT chimeric antibodies blocking the interaction between Bio-CD155-His and CHO-K1 human TIGIT high expression cell strains detected by FACS
B1 returned a 50% effective concentration (EC50) of 0.218 nM.
On the same count and under the same terms, next, B2: 0.329 nM; B3: 0.229 nM.
Still for that read-out and setting: next, B4: 0.352 nM.

The target is the same in another assay. Description: FACS, high expression strain. As to the method:
as §1
B1 displayed an EC50 of 0.299 nM.
Still for that read-out and setting: next, B2: 0.502 nM; B3: 0.342 nM; B4: 0.517 nM.

Another assay has the same target. Description: FACS, medium expression strain. As to the method:
as §1
B1 returned an EC50 of 0.29 nM.
On the same count and under the same terms, next, B2: 0.481 nM; B3: 0.316 nM.
B4 came in with an EC50 of 0.394 nM.

For another assay, the target named is T2, human TIGIT ECD-mFc (fusion protein of …). Description: FACS, competition: hTIGIT ECD-mFc to CHO-K1 CD155. The method, then: The collected CHO-K1 CD155 cells were washed once with PBS (Hyclone, CAT #SH30256) and resuspended to 2×10⁵/40 μL with 1% BSA-PBS. The tested antibodies were diluted to 600 nM with 1% BSA-PBS (diluted by 2.5-fold serial dilution for 12 concentration points). The TIGIT ECD-mFc was diluted with 1% BSA-PBS to 6 μg/mL. The 40 μL cells were then mixed with 40 μL diluted antibodies and 40 μL diluted TIGIT ECD-mFc, and then incubated at 4° C. for 60 minutes. […] The cell samples were washed twice with PBS, resuspended to 100 μL/well with 1% BSA-PBS and then analyzed by flow cytometry (BD, Canto II).
B1 registered an IC50 of 0.368 nM.
Still for that read-out and setting: next, B2: 0.572 nM.
Take B3: the concentration for half-maximal inhibition (IC50) stood at 0.363 nM.
Still for that read-out and setting: next, B4: 0.582 nM.

For a further assay, the target named is T1, full-length human TIGIT on CHO-K1 cells …. Description: FACS, competition: Bio-CD155-His to CHO-K1 human TIGIT. As to the method: The collected cells were washed once with PBS (Hyclone, CAT #SH30256), resuspended to 2×10⁵/40 μL with 1% BSA-PBS. The antibodies were diluted to 210 nM with 1% BSA-PBS (diluted by 3-fold serial dilution for 12 concentration points). […] The 40 μL cells were then mixed with 40 μL diluted antibodies and 40 μL diluted Bio-CD155-His, and then incubated at 4° C. for 60 minutes. The cells were washed twice with PBS, resuspended with APC labeled streptavidin (dilution ratio 1:1700, Biolegend, 405243), 100 μL/well, and incubated at 4° C. for 40 minutes. The cell samples were washed twice with PBS, resuspended with 1% BSA-PBS, 100 μL/well and then analyzed by flow cytometry (BD, Canto II). […] [0300] (d) The effect of anti-TIGIT chimeric antibodies blocking the interaction between TIGIT ECD-mFc and CHO-K1 CD155 detected by FACS
With B1, the IC50 amounted to 0.152 nM.
On the same count and under the same terms, next, B2: 0.246 nM; B3: 0.158 nM.
Same read-out and setting: the same measure for B4: 0.384 nM.

In the next assay the target is T3, human TIGIT ECD-his (fusion protein of …). Nature of the assay: BIAcore kinetics. For orientation: In SPR one partner is held on a chip, and binding of the other changes the refractive index at the surface.
On to B1, for which binding was put at a Kd of 0.0697 nM, the dissociation rate constant (koff) came out at 0.000315 s⁻¹ and the on-rate constant (kon) is 4.53e+06 M⁻¹ s⁻¹.
Turning to B2, binding was put at a Kd of 0.132 nM, the koff stood at 0.00017 s⁻¹ and the kon was 1.29e+06 M⁻¹ s⁻¹.
The corresponding values for B3 are 0.0536 nM, 0.000192 s⁻¹ and 3.59e+06 M⁻¹ s⁻¹.
B4 displayed a dissociation constant Kd of 0.3 nM, a dissociation rate constant (koff) of 0.000456 s⁻¹ and a kon of 1.52e+06 M⁻¹ s⁻¹.

In another assay the target is T4, cynomolgus monkey TIGIT ECD-mFc (extracellular domain of cynomolgus monkey TIGIT and mouse IgG2a Fc fragment) (cynomolgus monkey).
T4 construct: entry includes the signal peptide, limits not readable here
T4 sequence (chain, as listed by the source limits assumed): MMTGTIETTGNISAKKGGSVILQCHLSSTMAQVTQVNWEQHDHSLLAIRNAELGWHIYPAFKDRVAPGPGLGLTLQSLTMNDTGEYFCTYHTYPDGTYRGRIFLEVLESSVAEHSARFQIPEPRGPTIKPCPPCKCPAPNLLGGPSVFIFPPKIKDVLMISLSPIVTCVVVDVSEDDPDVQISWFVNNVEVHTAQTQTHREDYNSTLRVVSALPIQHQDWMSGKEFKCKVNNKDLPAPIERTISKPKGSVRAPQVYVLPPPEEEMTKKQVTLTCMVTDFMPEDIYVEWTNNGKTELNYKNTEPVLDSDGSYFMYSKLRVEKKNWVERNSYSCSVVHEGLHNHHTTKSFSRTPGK
Description: ELISA. The method, then:
(§2) After discarding the coating solution, the plate was added with 5% skim milk powder (Sangon Biotech, CAT #A600669-0250)-PBS, 250 μL/well, and incubated at 37° C. for 2-4 hours. […] The enzyme-labeled plate was then washed with 0.05% Tween 20-PBS for 3 times on the Microplate Washer, added with tested antibodies diluted to 13 nM with 1% BSA (diluted by 3-fold serial dilution for 12 concentration points), 50 μL/well, and incubated at 37° C. for 1.5-2 hours. The plate was washed with 0.05% Tween 20-PBS for 3 times on the Microplate Washer, then added with HRP enzyme-labeled antibodies (Merck, CAT #AP113P) diluted with 1% BSA (Sangon Biotech, CAT #A500023-0100)-PBS at a dilution ratio of 1:5000, 50 μL/well, and incubated at 37° C. for 1 hour. After washing 3 times with 0.05% Tween 20-PBS on the Microplate Washer, the plate was added with TMB chromogenic solution (KPL, CAT #52-00-03), 50 μL/well, and incubated at room temperature for 7-10 minutes. 1M HCL, 50 μL/well, was then added into the plate to terminate the reaction, and the OD450 nm was read by a microplate reader (Biotek, Powerwave HT). […] (b) The binding activity of anti-TIGIT chimeric antibodies to CHO-K1 human TIGIT (cells with high, medium and low expression levels) and CHO-KI cynomolgus monkey TIGIT detected by FACS.
For B1, the midpoint of the response, the EC50, lay at 0.0165 nM.
Same read-out and setting: next, B2: 0.0389 nM.
The same measure, in the same setting: the same measure for B3: 0.017 nM; for B4: 0.0163 nM.

The target in the next assay is T2, human TIGIT ECD-mFc (fusion protein of …). Nature of the assay: ELISA. The method, then: as §2
Regarding B1, the EC50 was found to be 0.0181 nM.
On the same count and under the same terms, next, B2: 0.0167 nM.
On the same count and under the same terms, the same measure for B3: 0.0173 nM.
Still for that read-out and setting: the same measure for B4: 0.0145 nM.

Another assay has as its target T5, full-length cynomolgus monkey TIGIT on CHO-K1 cells (CHO-K1 cynomolgus monkey TIGIT) (cynomolgus monkey).
T5 construct: NCBI XP_015300911.1; also called cynomolgus monkey TIGIT cells
Nature of the assay: FACS. As to the method:
as §1
(In general: In flow cytometry, cells or beads pass a laser one at a time.)
The molecule B1 registered an EC50 of 0.029 nM.
Same read-out and setting: next, B2: 0.0731 nM; B3: 0.0264 nM.
Same read-out and setting: next, B4: 0.0359 nM.

What is called EC50 is the concentration giving half of the maximal effect. One may read the IC50 as the concentration that gives 50% inhibition. The Kd is a measure of binding affinity in units of concentration. By koff is commonly meant the first-order rate constant of dissociation. In general, kon refers to a measure of how fast the partners come together.
